# In patent publication US6610289B2, “Mutated herpes simplex virus type 1 thymidine kinases and uses thereof” (The Board of Trustees of the University of Arkansas, priority 1998, dated 2003):
# Substitutions are numbered along the chain they refer to.
# What was measured:
# HSV-1 TK [1] = molecular target: T1, HSV-1 TK (Human herpesvirus 1, UniProt P0DTH5, Q125N); settings: previous study (17); cited from earlier work
# T1 construct: glutathione-S-transferase (GST)
# T1 sequence (P0DTH5 1-376 Q125N): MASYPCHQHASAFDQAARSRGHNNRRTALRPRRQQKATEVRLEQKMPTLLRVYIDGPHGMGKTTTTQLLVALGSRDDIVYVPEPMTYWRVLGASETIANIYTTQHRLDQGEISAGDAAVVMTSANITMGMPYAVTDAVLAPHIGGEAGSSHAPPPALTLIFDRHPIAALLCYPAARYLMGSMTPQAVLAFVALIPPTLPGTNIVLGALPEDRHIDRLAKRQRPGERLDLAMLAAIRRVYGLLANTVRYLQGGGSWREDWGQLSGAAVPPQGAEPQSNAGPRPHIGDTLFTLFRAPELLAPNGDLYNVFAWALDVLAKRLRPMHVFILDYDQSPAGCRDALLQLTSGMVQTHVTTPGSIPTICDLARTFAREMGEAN
# HSV-1 TK [2] = molecular target: T2, HSV-1 TK (Human herpesvirus 1, UniProt P0DTH5); test: Photoaffinity labeling with [^32P]5-azido-dUMP; assay type: binding, herpes simplex virus type 1; design: made in house; host or cells: E. coli BL21SY211 (pET-9a derived pET-TK1); settings: FIG. 1, autoradiograph
# T2 sequence (P0DTH5 1-376): T1 sequence (P0DTH5 1-376 Q125N) with N125Q
# Method: The TMP photoaffinity analog, [^32P]5-N3dUMP, was synthesized enzymatically using HSV-1 TK, 5-azido-deoxyuridine and [g-^32P]ATP as previously described (10, 12). For photolabeling studies, 10 μg of the DE-52/heparin agarose purified HSV-TKs were incubated with 10 mM [^32P]5-N3dUMP for 10 seconds. The sample was then irradiated for 90 seconds with a hand-held UV lamp (254 nm UVP-11, Ultraviolet Products, Inc.) at a distance of 3 cm. Reactions were terminated by addition of an equal volume of 10% TCA, incubated on ice for 10 minutes, and pelleted by centrifugation at 13,000×g for 5 minutes. The protein was resuspended in a solubilization mixture (23) and separated on 10% SDS-polyacrylamide gels. Dried gels were exposed to film for 2 days.
# The thymidine and TMP photoaffinity analog, [^32p]5-azido-dUMP, has proven useful as an active-site cross-linking reagent for studying HSV-1 TK (10, 12). This analog was used for photocrosslinking of the four HSV-1 TKs.
# HSV-1 TK [3] = molecular target: T2, HSV-1 TK; settings: reference (29); cited from earlier work
# Caspase 3 = Caspase 3 colorimetric assay; assay type: cell-based, human; settings: 25 μM GCV, FIG. 8
# Method: Parental HCT-116, wild-type HSV-1TK, Asn-125TK and Glu-125TK-expressing HCT-116 cells were treated with 0 (black bars) or 25 μM GCV (gray bars) for 4 days. Cell lysates were prepared and caspase 3 assays performed using a colorimetric ApoAlert CPP32/Caspase-3 kit as per manufacturers instructions (Clontech). Relative caspase 3 activity was determined by O.D. 405 nm readings of the cleaved DEVD-pNA substrate and presented as DVEDase activity.
# Caspase 3-like activity was determined in parental HCT-116 and each HSV-1 TK expressing cell line treated for 50 hrs plus or minus 25 μM GCV using an Apo-Alert CPP32/Caspase 3 Colorimetric Assay kit with the peptide substrate, DEVD-pNA, as per manufacturers instructions (Clontech Laboratories, INC.). GCV-treated and untreated cells were grown in 25 cm^2 flasks, and cell numbers were determined using a hemocytometer prior to analysis. Assays were done in triplicate with protein extracts derived from 2×10^6 cells. The amount of Caspase 3-like activities were quantitated using a Shimadzu UV/VIS spectophotometer set at 405 nm.
# Caspase 3 activity was determined in different cell extracts derived from GCV-treated and control cells using a calorimetric assay with the peptide substrate DVED (SEQ ID No. 4).
# HSV-1 TK [4] = molecular target: T3, HSV-1 TK (Human herpesvirus 1, UniProt P0DTH5, Q125E); settings: previous study (17); cited from earlier work
# T3 construct: glutathione-S-transferase (GST)
# T3 sequence (P0DTH5 1-376 Q125E): T1 sequence (P0DTH5 1-376 Q125N) with N125E
substance,measurement,setting,value
Asn-125,Increase in the Km of ACV,HSV-1 TK [1],3 fold
same,Increase in the Km of thymidine,HSV-1 TK [1],50 fold
"Gln-125 (WT): wild-type herpes simplex virus type 1 thymidine kinase with glutamine at position 125, parent enzyme [reference compound]",Photoincorporation of [^32P]5-azido-dUMP,HSV-1 TK [2],photoincorporated efficiently
same,Km for thymidine lower than that of GCV,HSV-1 TK [3],70-100 times
Glu-125,DVED-ase activity of GCV-treated cells relative to GCV-treated wild-type or Asn-125 HSV-1TK-expressing cells,Caspase 3,three times lower
same,Thymidine and ACV phosphorylation activities,HSV-1 TK [4],no detectable activities
